Consider 1 molecule from US20050084496A1 (GOVERNMENT OF THE UNITED STATES OF AMERICA REP BY THE SECR …, published 2005).

Experiment [1] has as its target T1, human serum albumin (human, UniProt P02768 25-609).
T1 construct: also called HSA; HAS
Description: ELISA, 100 ng target on plate, detected with anti-scytovirin rabbit polyclonal.

Experiment [2] addresses T2, sCD4 (UniProt P01730 26-394).
T2 construct: Printed only as sCD4 (soluble CD4)
Described as above.

Experiment [3] has as its target BSA (UniProt P02769 25-607). Described as above.
The target of experiment [4] is T3, glycosylated gp120 (HIV-1SF2 gp120) (HIV-1 SF2, UniProt P03378 32-509, limits assumed, glycosylated).
T3 construct: domain: gp120
Description: ELISA, glycosylated and nonglycosylated HIV-1SF2 gp120 on plate, serial dilutions of scytovirin.

T1 sequence (P02768 25-609 limits assumed): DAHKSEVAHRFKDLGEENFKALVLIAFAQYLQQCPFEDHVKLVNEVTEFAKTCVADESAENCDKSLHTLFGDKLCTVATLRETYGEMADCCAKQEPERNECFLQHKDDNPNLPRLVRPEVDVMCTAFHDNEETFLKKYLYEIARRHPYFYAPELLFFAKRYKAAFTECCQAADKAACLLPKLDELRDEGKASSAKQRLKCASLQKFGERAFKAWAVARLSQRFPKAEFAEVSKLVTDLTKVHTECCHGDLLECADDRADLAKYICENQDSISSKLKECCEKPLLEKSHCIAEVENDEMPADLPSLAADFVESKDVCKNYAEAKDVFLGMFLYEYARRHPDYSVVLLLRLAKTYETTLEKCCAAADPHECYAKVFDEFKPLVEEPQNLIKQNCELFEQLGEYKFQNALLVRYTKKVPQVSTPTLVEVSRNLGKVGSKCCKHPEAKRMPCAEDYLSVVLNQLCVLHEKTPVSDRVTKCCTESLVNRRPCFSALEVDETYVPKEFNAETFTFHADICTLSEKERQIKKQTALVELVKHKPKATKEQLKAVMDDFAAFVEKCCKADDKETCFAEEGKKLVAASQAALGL
Sequence of BSA (P02769 25-607 limits assumed): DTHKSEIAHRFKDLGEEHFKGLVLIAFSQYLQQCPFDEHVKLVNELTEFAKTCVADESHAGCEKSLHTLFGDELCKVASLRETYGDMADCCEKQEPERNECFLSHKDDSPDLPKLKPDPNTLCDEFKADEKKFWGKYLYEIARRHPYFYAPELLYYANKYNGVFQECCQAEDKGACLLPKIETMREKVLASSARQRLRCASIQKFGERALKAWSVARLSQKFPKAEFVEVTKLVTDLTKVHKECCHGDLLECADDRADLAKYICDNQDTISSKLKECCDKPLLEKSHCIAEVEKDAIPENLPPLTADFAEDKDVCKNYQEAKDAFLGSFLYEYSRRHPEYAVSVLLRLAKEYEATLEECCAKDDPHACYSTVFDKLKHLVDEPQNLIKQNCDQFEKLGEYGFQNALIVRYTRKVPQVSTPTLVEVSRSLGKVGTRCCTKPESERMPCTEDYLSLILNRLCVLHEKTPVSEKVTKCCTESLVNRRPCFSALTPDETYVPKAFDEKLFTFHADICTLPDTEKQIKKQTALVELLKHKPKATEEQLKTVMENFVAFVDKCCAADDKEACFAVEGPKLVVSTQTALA

B1: scytovirin (other)
chain: GSGPTYCWNEANNPGGPNRCSNNKQCDGARTCSSSGFCQGTSRKPDPGPKGPTYCWDEAKNPGGPNRCSNSKQCDGARTCSSSGFCQGTAGHAAA
notes: Natural protein purified from an aqueous extract of cultured Scytonema varium; It has 95 residues, weighs 9,713 Da and has five intrachain disulfides (Cys20-Cys26, Cys32-Cys38, Cys68-Cys74, Cys80-Cys86, Cys7-Cys55); also called wild-type scytovirin; natural scytovirin
Turning to B1, the binding result is reported as “no binding (tested: 100 ng of scytovirin)” in experiment [1], “no binding (tested: 100 ng of scytovirin)” in experiment [2], “no binding (tested: 100 ng of scytovirin)” in experiment [3] and “binds” in experiment [4].
